Values quoted from earlier work, collected in publication PMC4067134.

Assays:
[1] = biological target: integrin αIIbβ3 (Homo sapiens) (UniProt P08514)
[2] = biological target: integrin β3 (Homo sapiens) (UniProt P05106)
Sequence of UniProt P05106 (P05106 27-718): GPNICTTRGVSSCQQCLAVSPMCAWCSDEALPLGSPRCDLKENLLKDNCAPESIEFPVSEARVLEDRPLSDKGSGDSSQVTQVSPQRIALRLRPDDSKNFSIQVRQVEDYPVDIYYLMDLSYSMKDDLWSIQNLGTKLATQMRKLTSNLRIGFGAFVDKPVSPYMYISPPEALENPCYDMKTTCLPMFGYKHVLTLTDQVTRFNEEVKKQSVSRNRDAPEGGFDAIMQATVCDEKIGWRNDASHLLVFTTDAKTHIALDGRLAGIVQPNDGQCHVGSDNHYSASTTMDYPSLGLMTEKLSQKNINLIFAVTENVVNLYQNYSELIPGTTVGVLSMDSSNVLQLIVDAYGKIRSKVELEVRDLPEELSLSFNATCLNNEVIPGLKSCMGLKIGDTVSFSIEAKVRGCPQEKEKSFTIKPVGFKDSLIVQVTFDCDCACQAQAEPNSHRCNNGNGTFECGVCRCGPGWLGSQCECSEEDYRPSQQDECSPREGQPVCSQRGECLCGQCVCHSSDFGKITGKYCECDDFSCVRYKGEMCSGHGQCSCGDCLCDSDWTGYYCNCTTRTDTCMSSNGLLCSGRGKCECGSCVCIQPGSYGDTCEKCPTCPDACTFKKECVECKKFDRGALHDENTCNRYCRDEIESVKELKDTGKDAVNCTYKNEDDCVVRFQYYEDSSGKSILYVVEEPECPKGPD

- Kd [1]: 7 µM
- Kd [2]: 6.9 µM
Substance: ERp5 (from UniProt Q15084)
